Measurements published in US20150247163.
Substitutions are numbered along the chain they refer to. Names and notes keep the numbering of the source.

Key:
[1] = biological target: T1, wild-type PBS1 (AvrPphB susceptible 1), Q9FE20
T1 chain: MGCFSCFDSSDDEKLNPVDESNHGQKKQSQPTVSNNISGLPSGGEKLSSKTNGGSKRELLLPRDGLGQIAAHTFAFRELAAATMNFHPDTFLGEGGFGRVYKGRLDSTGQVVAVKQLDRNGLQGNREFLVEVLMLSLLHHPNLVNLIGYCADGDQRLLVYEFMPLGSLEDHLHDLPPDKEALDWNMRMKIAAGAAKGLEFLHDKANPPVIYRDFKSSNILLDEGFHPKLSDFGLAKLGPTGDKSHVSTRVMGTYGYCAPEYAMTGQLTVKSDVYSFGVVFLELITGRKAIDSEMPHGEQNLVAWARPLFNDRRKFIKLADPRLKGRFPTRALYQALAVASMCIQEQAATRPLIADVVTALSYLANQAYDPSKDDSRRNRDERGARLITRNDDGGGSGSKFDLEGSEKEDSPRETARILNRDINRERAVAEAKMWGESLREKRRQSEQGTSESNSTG

[2] = biological target: T2, PBS1^TCS-HA (PBS1 in which the seven amino acids flanking the AvrPphB cleavage site are replaced with a TEV cleavage site, fused to 3xHA)
T2 chain: T1 chain with G241E, D242N, K243L, S244Y, H245F, V246Q, S247G

[3] = biological target: T3, PBS1^RCS2-HA (PBS1 in which the AvrPphB cleavage site GDKSHVS is replaced with the RIN4 cleavage site 2 VPKFGDW, fused to a C-terminal 3xHA epitope)
T3 chain: T1 chain with G241V, D242P, S244F, H245G, V246D, S247W

B1: TEV protease (NIa protease of Tobacco Etch Virus) fused to 5xMyc (protein)
chain: GESLFKGPRDYNPISSTICHLTNESDGHTTSLYGIGFGPFIITNKHLFRRNNGTLLVQSLHGVFKVKNTTTLQQHLIDGRDMIIIRMPKDFPPFPQKLKFREPQREERICLVTTNFQTKSMSSMVSDTSCTFPSSDGIFWKHWIQTKDGQCGSPLVSTRDGFIVGIHSASNFTNTNNYFTSVPKNFMELLTNQEAQQWVSGWRLNADSVLWGGHKVFMSKPEEPFQPVKEATQLMNELVYSQ
cleavage by immunoblot [1]: TEV protease did not cleave wild-type PBS1
cleavage by immunoblot, 6 hours post induction [2]: TEV protease cleaved PBS1^TCS 6 hours post induction

B2: AvrRpt2 (Example 1 pTA7002 construct; also as delivered by P. syringae DC3000(avrRpt2)) (protein)
chain: MKIAPVAINHSPLSREVPSHAAPTQAKQTNLQSEAGDLDARKSSASSPETRALLATKTVLGRHKIEVPAFGGWFKKKSSKHETGGSSANADSSSVASDSTEKPLFRLTHVPYVSQGNERMGCWYACARMVGHSVEAGPRLGLPELYEGREGPAGLQDFSDVERFIHNEGLTRVDLPDNERFTHEELGALLYKHGPIIFGWKTPNDSWHMSVLTGVDKETSSITFHDPRQGPDLAMPLDYFNQRLAWQVPHAMLYR
cleavage product by anti-HA immunoprecipitation and immunoblot, transgenic Arabidopsis line #5, 12 hours after inoculation [3]: a cleavage product of PBS1^RCS2 was detected in transgenic line #5 twelve hours after inoculation with DC3000(avrRpt2), but not with DC3000 lacking avrRpt2

B3: C122A (protease-deficient mutant form of AvrRpt2) fused to 5xMyc (protein)
chain: B2 chain with C122A
cleavage by immunoblot, 24 hours post-induction [3]: even C122A induced small amounts of cleavage

B4: AvrRpt2 fused to 5xMyc (Example 5 construct) (protein)
chain: B2 chain
cleavage by immunoblot, 6 hours post-induction [3]: AvrRpt2 cleaved PBS1^RCS2 at 6 hours post-induction
cleavage by immunoblot, 24 hours post-induction [3]: At 24 hours post-induction, AvrRpt2-induced cleavage was increased
